Laboratory results from publication PMC12192291, “Ancestral [Fe-S] biogenesis system SMS has a unique mechanism of cluster assembly and sulfur utilization” (PLOS Biology, 2025).

B1: SmsC from Methanocaldococcus jannaschii (enzyme)
chain: MVSIMLLKVEDLHVYRGNREILKGVNLTVEENEIHAIIGPNGAGKSTLAYTIMGISGYKPTKGRIIFKGVDIIDKNITERARMGMTLAWQEPARFEGIKVKNYLMLGMNEKYKKDKEIAEEKIREALKLVNLDPDKYLDRYVDETLSGGERKRIELASIICMEPDLAILDEPDSGIDIVSFDEIKRVFDYLKDKGCSLLVITHREELAEHADRVSLICAGEVIKSGDPKEVGEFYKKECGKCYKKVPDGK
notes: SmsC, Methanocaldococcus jannaschii, ABC ATPase subunit of the SMS system; Monomer in solution without nucleotide; two copies in SmsC2B2; In the cryo-EM sample one of the two copies carries a [4Fe-4S] cluster; also called apo-SmsC; source: E. coli MG1655(DE3) (FBE682), purified (HisTrap, TEV protease, Ni-NTA, SEC); not shown: His6, N-terminal, cleaved
B2: SmsB from Methanocaldococcus jannaschii (natural protein)
chain: MSIKEELMEIIEAIKYTSEKPEEIVHGKGPRIIVKESRIIDVQGDEGIILEGKEEDGKIKAKIIVKKGYKFKYPIHMCFGITEENISQIIDVEIILEEDSSISLMSHCSFPKGKGIKHIMNGIIKIGKNAKFSYNEFHYHGMDGDILVKPTVKVEIDEGGIYISNFTLTKGRIGTLDIEQEIIAKKDAIIDITTRTYAIKEDVVKVNEVVKLNGENAKCIIKSRGAAMDNSKISLKLKIEGNAPYSKGHIDCAEIVKGNAEVESIPIVVVRDDKARITHEAAIGSVDKKQLETLMAKGLDEDEATEIIVKGMIGDL
notes: SmsB, Methanocaldococcus jannaschii, subunit of the SMS system; Mainly a homodimer in solution; two copies in SmsC2B2; also called SmsB2; source: E. coli MG1655(DE3) (FBE682), purified (HisTrap, TEV protease, Ni-NTA, SEC); not shown: His6, N-terminal, cleaved

Experiments:
SmsC [1] = biological target: T1, SmsC (Methanocaldococcus jannaschii, UniProt Q60350); experiment: ligand-induced dimerization by size exclusion chromatography; blocks [Fe-S] reconstitution on SmsC2B2; assay type: binding; set-up: gene MJ0035; SmsC, His-tag removed
T1 sequence (Q60350 1-250): B1 chain

SmsC [2] = biological target: T1, SmsC; experiment: enzyme-coupled ATPase assay (PK/LDH) on purified protein; assay type: biochemical; set-up: gene MJ0035; SmsC alone and SmsC2B2 complex
[3] = biological target: the molecule itself; experiment: cryo-EM structure; chemically reconstituted [4Fe-4S]-bound SmsC2B2, prepared under anoxic conditions and quickly vitrified (9H78, EMD-51913)
[4] = biological target: B2; experiment: SEC; calibrated Hiload 600 Superdex 200, 50 mM Tris-HCl pH 7.8, 100 mM NaCl, 1 mM DTT; no nucleotide; for the complex SmsB2 and SmsC were mixed in molar amounts corresponding to SmsC2B2 and incubated overnight; details: both partners purified
[5] = biological target: the molecule itself; experiment: as above

Nc1ncnc2c1ncn2[C@@H]1O[C@H](CO[P@](=O)(O)O[P@](=O)(O)CP(=O)(O)O)[C@@H](O)[C@H]1O [AMP-PCP]
ligand-induced dimerization by size exclusion chromatography; blocks [Fe-S] reco (SmsC [1]): Incubation of SmsC with excess of adenosine-5′-[(β,γ)-methyleno]triphosphate (AMP-PCP) led to SmsC dimer formation

Nc1ncnc2c1ncn2[C@@H]1O[C@H](COP(=O)(O)OP(=O)(O)OP(=O)(O)O)[C@@H](O)[C@H]1O [ATP]
enzyme-coupled ATPase assay (PK/LDH) on purified protein (SmsC [2]): 0.98 min⁻¹ (kcat)

B1
binding result [3]: binds | binding result [4]: binds

B2
stoichiometry N [5]: 2
